Each block holds one binder with its values, some of them ahead of it.
Assays:
[1] = biological target: deglycosylated human CD25 (SinoBiological) (Homo sapiens, UniProt P01589, deglycosylated with N-glycosidase F); assay: crystal structure
[2] = biological target: human CD25 on SU-DHL1 tumor cells (human CD25+) (Homo sapiens, UniProt P01589); assay: flow cytometry on cells
[3] = biological target: cynomolgus CD25 on HSC-F cells (cynomolgus CD25+) (Macaca fascicularis, UniProt H6WS54); assay: flow cytometry on cells

Chain of human CD25 on SU-DHL1 tumor cells (human CD25+) (P01589 22-272): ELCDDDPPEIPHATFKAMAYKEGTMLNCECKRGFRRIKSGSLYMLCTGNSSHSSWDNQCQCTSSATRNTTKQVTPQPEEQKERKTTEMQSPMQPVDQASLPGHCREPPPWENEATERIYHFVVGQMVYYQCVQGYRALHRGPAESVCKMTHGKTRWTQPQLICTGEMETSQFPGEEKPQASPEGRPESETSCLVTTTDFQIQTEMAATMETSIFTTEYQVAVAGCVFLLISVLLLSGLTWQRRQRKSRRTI
Chain of deglycosylated human CD25 (SinoBiological) (P01589 22-213): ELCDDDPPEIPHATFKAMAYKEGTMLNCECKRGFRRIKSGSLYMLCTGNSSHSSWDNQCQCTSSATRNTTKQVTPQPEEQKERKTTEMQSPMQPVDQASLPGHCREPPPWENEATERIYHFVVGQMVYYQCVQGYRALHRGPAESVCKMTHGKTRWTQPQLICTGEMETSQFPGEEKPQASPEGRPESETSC

binding result [1]: binds
B1: Fab fragment of RG6292 (Fab, V domains shown)
VH: QVQLVQSGAEVKKPGSSVKVSCKASGGTFSSLAISWVRQAPGQGLEWMGGIIPIFGTANYAQKFQGRVTITADESTSTAYMELSSLRSEDTAVYYCARGGSVSGTLVDFDIWGQGTMVTVSS
VL: not shown

binding result [2]: binds
B2: RG6292 (FF), the fully fucosylated version of RG6292 (antibody, V domains shown)
VH: QVQLVQSGAEVKKPGSSVKVSCKASGGTFSSLAISWVRQAPGQGLEWMGGIIPIFGTANYAQKFQGRVTITADESTSTAYMELSSLRSEDTAVYYCARGGSVSGTLVDFDIWGQGTMVTVSS
VL: not shown

binding result [3]: binds
B3: RG6292, a-fucosylated human IgG1 mAb (anti-human CD25^NIB) (antibody, V domains shown)
VH: QVQLVQSGAEVKKPGSSVKVSCKASGGTFSSLAISWVRQAPGQGLEWMGGIIPIFGTANYAQKFQGRVTITADESTSTAYMELSSLRSEDTAVYYCARGGSVSGTLVDFDIWGQGTMVTVSS
VL: not shown
